Measurements reported in US20170088631A1.
pEC50, pKd: −log10 of the molar value. Blank lines part the entries; values can stand above or below the substance they belong to.

Legend:
[1] = molecular target: Carcinoembryonic Antigen (CEA) (human) (UniProt P06731); assay: SPR at 25 C; IL-2 qm
[2] = molecular target: Carcinoembryonic Antigen (CEA) (human) (UniProt P06731); assay: SPR at 25 C; IL-2 wt
[3] = molecular target: IL-2R βγ heterodimer on cells (NK92 cells; human NK cells and CD8+ T cells) (human) (UniProt P14784); assay: cell-based or functional assay
[4] = molecular target: human IL-2R βγ heterodimer (IL-2R β subunit-Fc(hole) / IL-2R γ subunit-Fc(knob) fusion) (human); assay: SPR, human IL-2R βγ heterodimer immobilized on the chip, construct as analyte, 25 C; apparent KD, 1:1 fit
[5] = molecular target: human Fibroblast Activation Protein (FAP), recombinant (human) (UniProt Q12884); assay: SPR (Biacore), His-tagged human FAP captured by anti-His antibody, construct as analyte, 25 C; apparent bivalent affinity (avidity), 1:1 fit
[6] = molecular target: human FAP expressed on stably transfected HEK 293 cells (human) (UniProt Q12884); assay: flow cytometry on HEK293 cells stably transfected with human FAP, 4 C, FITC anti-human F(ab')2 detection

Carcinoembryonic Antigen (CEA) (human), sequence (P06731 35-685 limits assumed): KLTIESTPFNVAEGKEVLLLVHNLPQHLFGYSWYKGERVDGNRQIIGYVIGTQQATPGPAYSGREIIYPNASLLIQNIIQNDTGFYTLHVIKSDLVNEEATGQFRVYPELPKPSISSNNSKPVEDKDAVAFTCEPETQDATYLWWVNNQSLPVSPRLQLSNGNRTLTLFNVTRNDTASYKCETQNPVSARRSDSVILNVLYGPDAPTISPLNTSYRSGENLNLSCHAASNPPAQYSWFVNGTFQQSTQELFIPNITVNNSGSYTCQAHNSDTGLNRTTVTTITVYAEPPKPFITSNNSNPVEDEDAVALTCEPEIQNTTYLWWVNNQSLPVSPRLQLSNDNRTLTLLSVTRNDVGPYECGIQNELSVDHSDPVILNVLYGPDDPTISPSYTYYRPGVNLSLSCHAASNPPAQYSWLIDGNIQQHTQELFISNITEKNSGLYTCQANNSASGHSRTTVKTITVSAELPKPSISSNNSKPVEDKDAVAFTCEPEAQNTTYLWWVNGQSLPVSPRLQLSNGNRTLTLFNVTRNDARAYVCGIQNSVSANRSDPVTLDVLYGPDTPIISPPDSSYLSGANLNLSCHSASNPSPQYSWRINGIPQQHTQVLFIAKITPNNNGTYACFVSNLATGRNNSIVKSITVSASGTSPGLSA
IL-2R βγ heterodimer on cells (NK92 cells; human NK cells and CD8+ T cells) (human), sequence (P14784 27-551, chain 1 of 2): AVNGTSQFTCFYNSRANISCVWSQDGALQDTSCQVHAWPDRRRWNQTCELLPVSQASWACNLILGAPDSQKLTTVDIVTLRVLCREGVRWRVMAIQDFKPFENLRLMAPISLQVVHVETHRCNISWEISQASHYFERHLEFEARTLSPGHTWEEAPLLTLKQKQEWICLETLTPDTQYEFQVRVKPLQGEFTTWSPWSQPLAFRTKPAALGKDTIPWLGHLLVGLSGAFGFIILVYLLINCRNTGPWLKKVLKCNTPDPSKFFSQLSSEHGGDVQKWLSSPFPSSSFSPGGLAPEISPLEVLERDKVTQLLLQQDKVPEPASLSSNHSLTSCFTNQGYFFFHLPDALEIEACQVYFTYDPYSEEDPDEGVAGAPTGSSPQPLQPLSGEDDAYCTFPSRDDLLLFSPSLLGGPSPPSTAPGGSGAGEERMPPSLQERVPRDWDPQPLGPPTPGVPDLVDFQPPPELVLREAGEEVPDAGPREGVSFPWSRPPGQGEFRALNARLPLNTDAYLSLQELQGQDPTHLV
IL-2R βγ heterodimer on cells (NK92 cells; human NK cells and CD8+ T cells) (human), sequence (P31785 23-369, chain 2 of 2, further chain): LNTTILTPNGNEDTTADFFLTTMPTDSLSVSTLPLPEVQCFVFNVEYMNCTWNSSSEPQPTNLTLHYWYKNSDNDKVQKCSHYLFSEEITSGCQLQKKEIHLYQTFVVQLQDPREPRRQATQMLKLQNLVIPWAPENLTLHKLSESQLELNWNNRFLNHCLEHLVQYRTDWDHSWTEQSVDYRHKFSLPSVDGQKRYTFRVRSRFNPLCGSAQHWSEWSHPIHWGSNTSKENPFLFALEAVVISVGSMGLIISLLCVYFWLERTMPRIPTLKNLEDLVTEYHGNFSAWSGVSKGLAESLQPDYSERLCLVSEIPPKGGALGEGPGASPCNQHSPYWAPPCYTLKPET
human IL-2R βγ heterodimer (IL-2R β subunit-Fc(hole) / IL-2R γ subunit-Fc(knob) fusion) (human), sequence (beta, as listed by the source limits assumed, form in doubt, chain 1 of 2): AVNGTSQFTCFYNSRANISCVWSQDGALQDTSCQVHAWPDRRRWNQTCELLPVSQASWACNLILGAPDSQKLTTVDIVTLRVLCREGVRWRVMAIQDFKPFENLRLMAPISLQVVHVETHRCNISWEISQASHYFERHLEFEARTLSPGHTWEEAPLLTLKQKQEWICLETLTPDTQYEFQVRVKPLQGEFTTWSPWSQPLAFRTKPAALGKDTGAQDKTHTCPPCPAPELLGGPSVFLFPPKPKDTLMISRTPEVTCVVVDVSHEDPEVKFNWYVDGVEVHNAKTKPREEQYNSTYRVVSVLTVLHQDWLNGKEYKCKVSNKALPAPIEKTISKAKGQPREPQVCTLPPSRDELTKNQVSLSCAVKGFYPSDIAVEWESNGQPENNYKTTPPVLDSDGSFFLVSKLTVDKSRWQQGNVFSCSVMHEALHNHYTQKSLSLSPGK
human IL-2R βγ heterodimer (IL-2R β subunit-Fc(hole) / IL-2R γ subunit-Fc(knob) fusion) (human), sequence (gamma, as listed by the source limits assumed, form in doubt, chain 2 of 2): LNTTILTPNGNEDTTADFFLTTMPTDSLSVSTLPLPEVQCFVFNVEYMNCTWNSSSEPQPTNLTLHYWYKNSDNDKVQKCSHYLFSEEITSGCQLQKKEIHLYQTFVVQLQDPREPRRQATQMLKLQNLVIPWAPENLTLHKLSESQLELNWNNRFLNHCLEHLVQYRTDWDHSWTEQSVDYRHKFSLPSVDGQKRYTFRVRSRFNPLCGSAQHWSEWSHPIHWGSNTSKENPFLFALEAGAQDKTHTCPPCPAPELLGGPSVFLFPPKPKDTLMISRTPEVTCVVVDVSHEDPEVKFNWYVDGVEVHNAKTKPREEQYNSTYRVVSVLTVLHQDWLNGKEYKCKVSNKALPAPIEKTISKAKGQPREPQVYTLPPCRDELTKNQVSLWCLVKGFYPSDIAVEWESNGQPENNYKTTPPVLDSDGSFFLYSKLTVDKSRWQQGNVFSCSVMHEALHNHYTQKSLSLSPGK

- pKd [1]: 9.40
Substance: CEA-targeted CH1A1A 98/99 2F1-based IgG-IL-2 qm immunoconjugate

- pKd [2]: 9.33
Substance: CEA-targeted CH1A1A 98/99 2F1-based IgG-IL-2 wt immunoconjugate

- fold decrease in STAT5 phosphorylation in NK cells and CD8+ T cells (FACS); potency relative to Proleukin [3]: < 10 fold
- pKd [4]: 8.23
- pKd [5]: 10.00
- pEC50 [6]: 9.05
Substance: FAP-targeted 4G8-based IgG-IL-2 quadruple mutant (qm) immunoconjugate
